The target of test [1] is HIS-gG3PD (full-length gG3PD, N-terminal 6xHIS-tagged) (Giardia duodenalis (isolate WB clone C6)). Kind of test: native gel or EMSA; 3-12% Blue Native PAGE of purified HIS-tagged recombinant proteins (1 μg by the methods, 3 μmol by the legend), silver stain or anti-HIS blot. (In general: In EMSA bound probe runs differently from free probe, usually more slowly.)
Test [2] has as its target HIS-gG3PD_C (C-terminal half of gG3PD, N-terminal 6xHIS-tagged) (Giardia duodenalis (isolate WB clone C6)). The description is as above.

“HIS-gG3PD (full-length gG3PD, N-terminal 6xHIS-tagged) (enzyme)”: in test [1], the stoichiometry N came to 2.
As to “HIS-gG3PD_C (C-terminal half of gG3PD, N-terminal 6xHIS-tagged) (domain or fragment)”, the stoichiometry N in test [2] was 2.

Broadly, the stoichiometry N is the number of molecules, sites or subunits per partner or assembly.

The values above are taken from publication PMC4450592.
